Reference: a protein production outcome set (Wang et al. 2014)

Experiment: label from the status in PepcDB records
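Further: failed if final PepcDB status was selected cloned or expressed and not failed if soluble or beyond.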

| Sequence | protein production |
| --- | --- |
| MEFSGRKWRKLRLAGDQRNASYPHCLQFYLQPPSENISLIEFENLAIDRVKLLKSVENLGVSYVKGTEQYQSKLESELRKLKFSYRENLEDEYEPRRRDHISHFILRLAYCQSEELRRWFIQQEMDLLRFRFSILPKDKIQDFLKDSQLQFEAISDEEKTLREQEIVASSPSLSGLKLGFESIYKIPFADALDLFRGRKVYLEDGFAYVPLKDIVAIILNEFRAKLSKALALTARSLPAVQSDERLQPLLNHLSHSYTGQDYSTQGNVGKISLDQIDLLSTKSFPPCMRQLHKALRENHHLRHGGRMQYGLFLKGIGLTLEQALQFWKQEFIKGKMDPDKFDKGYSYNIRHSFGKEGKRTDYTPFSCLKIILSNPPSQGDYHGCPFRHSDPELLKQKLQSYKISPGGISQILDLVKGTHYQVACQKYFEMIHNVDDCGFSLNHPNQFFCESQRILNGGKDIKKEPIQPETPQPKPSVQKTKDASSALASLNSSLEMDMEGLEDYFSEDS | failed |
| MEFTTGLMSLDTALNEMLSRVTPLTAQETLPLVQCFGRILASDVVSPLDVPGFDNSAMDGYAVRLADIASGQPLPVAGKSFAGQPYHGEWPAGTCIRIMTGAPVPEGCEAVVMQEQTEQMDNGVRFTAEVRSGQNIRRRGEDISAGAVVFPAGTRLTTAELPVIASLGIAEVPVIRKVRVALFSTGDELQLPGQPLGDGQIYDTNRLAVHLMLEQLGCEVINLGIIRDDPHALRAAFIEADSQADVVISSGGVSVGEADYTKTILEELGEIAFWKLAIKPGKPFAFGKLSNSWFCGLPGNPVSATLTFYQLVQPLLAKLSGNTASGLPARQRVRTASRLKKTPGRLDFQRGVLQRNADGELEVTTTGHQGSHIFSSFSLGNCFIVLERDRGNVEVGEWVEVEPFNALFGGL | not failed |
| MEFYEVIKKRKSIKKFEQTAIDRDKLLKIIDMAMRAPSWKNKTPYKFIVVESDKLKLDIANAIENKTSAASEAVLNSPMTIVAVANPEESGDVSGKEIYLIDTAIAMEHIVLGATDEGYGTCWIAAFNENKIKEALKIPDNLRVVALTPLGVPKDSAEDEPHHPKKDMDEYLYIDKWGTSFMESNVKILEKN | not failed |
| MEGFGMPKLIISGRGGSGKSTLVTLIAHTLKEQKKRVLVVDSDESNIGLSGILGIEPAEKTLMDYLGGKPRVMKKLRSMIRDGETEPELFREKFDLESLSQEFVCWVGSLGLMQIGKIDHAMEGCACPMGAVTRDFLNHVRLEEDQWVLVDTEAGVEHFGRGIVEGADAVVMVVDPSSDAVLLAEKAAKLTHEADKRFGVILNKIDEETEPILTELLTSEGNEIKGVLPYSPAITKMNLKGESLGAYAVKNEVDEIIRELMKCLEHHHHHH | failed |
| MEGIDMLDIKLIRENPELVKNDLIKRGELEKVKWVDEILKLDTEWRTKLKEINRLRHERNKIAVEIGKRRKKGEPVDELLAKSREIVKRIGELENEVEELKKKIDYYLWRLPNITHPSVPVGKDENDNVPIRFWGKARVWKGHLERFLEQSQGKMEYEILEWKPKLHVDLLEILGGADFARAAKVSGSRFYYLLNEIVILDLALIRFALDRLIEKGFTPVIPPYMVRRFVEEGSTSFEDFEDVIYKVEDEDLYLIPTAEHPLAGMHANEILDGKDLPLLYVGVSPCFRKEAGTAGKDTKGIFRVHQFHKVEQFVYSRPEESWEWHEKIIRNAEELFQELEIPYRVVNICTGDLGYVAAKKYDIEAWMPGQGKFREVVSASNCTDWQARRLNIRFRDRTDEKPRYVHTLNSTAIATSRAIVAILENHQEEDGTVRIPKVLWKYTGFKEIVPVEKKERCCAT | not failed |
| MEGLLIDYVQPGSIAEELEIEAGDRLVAINGQDLRDIIDFSFYAHDEELALEIVKPSGDHWEAEIERDGDEPLGLVFAPPVPAQCGNKCVFCFVHQLPKGLRRPLYVKDEDYRLSFLYGNYVTLSNIRRGDLDRIVAQRLSPLYISVHATNPALRERLLGRSEILPILDLMRELAAARIVMHSQIVLCPGLNDGVELEKTVRDLAGLHPWVESLAIVPIGLTKHRRGLPALEPVTASYAETFVQNWQPAAERLERELGAPFLFIADEFYIKAGLPFPPLETYGDLPQIENGVGMIPLFLDESERVLKKARKGKPVTVTVVTGESPYRYLAAFLERLSVRTGATFKPVAVHNRLFGESVTVTGLVAGSDIVEELSGRDLGDAVLVPDVMLKEGEGIFLDDLSVDGLGKSLGTRVLVVEATPQGVVDALRRVRSMLEHHHHHH | failed |
| MEGMKGAVLITGASRGIGEATARLLHAKGYRVGLMARDEKRLQALAAELEGALPLPGDVREEGDWARAVAAMEEAFGELSALVNNAGVGVMKPVHELTLEEWRLVLDTNLTGAFLGIRHAVPALLRRGGGTIVNVGSLAGKNPFKGGAAYNASKFGLLGLAGAAMLDLREANVRVVNVLPGSVDTGFAGNTPGQAWKLKPEDVAQAVLFALEMPGHAMVSEIELRPTRPTSGPR | not failed |
| MEGPLNLAHQQSRRADRLLAAGKYEEAISCHRKATTYLSEAMKLTESEQAHLSLELQRDSHMKQLLLIQERWKRAKREERLKAH | not failed |
| MEGQTHDAQNNVPEHDNPLMNVKNPSSNLFSKKDAQCLSVLCNGKWLQIVRSSPKVSCEASTCPSHILTKVGENYVAESEKMHKKVISFSSKTFSQGTLQFTMRANGTPHFVFKLENQKDVYVASLSSNVQDQNSYMIHLQRGESSASSSHLVGRINVSTLFSEKVLEREFVLFSSNGENLKIPRTRKNRGLSKKVVHAVKNERRTARLSRTSFIPDLGSWDEQFQAQNYDCLLKNKLPTNLETLAVVVKQETIEDEIGGWGLKFLKRSPMFQRSNDASETETSTSSISMNVVIPSGIHGGPEDGPSSLIERWKSQGNCDCGGWDLCCSLTLLKGQPRKDQYFELFIEVKLSFISSNTSIL | failed |
| MEGVELELERRSKFLNSLIQKKKAKEQQDQKDEFNVRVRASDMPLPQQNRAFSLSREILNATPGKADNKRLAHALKKDFDSAYGPAWHCIVGTSFGSYVTHSTGGFLYFQIDKVYVLLFKTAVEPLDQK | failed |
| MEHDLNDMMVFLAVVETGSFTLAADRLGMPKANVSRKVSRLEKNLAVTLLERSTRSQHLTEAGRRYLAHCKRIHEELDLATASVCELFHSYTGELKIGASVASGQQVLRPALGKFMRQYPDLKVQLNLVNRRVDFIEEGFDVVIRIGQLNDSMLIAKKLGAINRKIFASPSYLAKQGNPDKVEQLTEHQLLIMNPLNISGNKDLKLPLTSTDHETFTLDCQPRLLVDDFSMLKQAIVDGLGIGVLPDYMCRQEVASGQLVNILPDWGMAKVDIYALYPKHRAKIPKVKAFIDFVSELYGEVL | not failed |
| MEHKIVHVGDIPVANDKPFTLFAGMNVLESRDLAMQICEHYVKVTDKLGIPYVFKASFDKANRSSVHSYRGPGLEEGMKIFQELKETFGVKIITDVHTEAQAQPVADVVDVIQLPAFLARQTDLVEAMAKTGAVINVKKPQFMSPGQVGNIVEKFAECGNDKVILCERGSCHGYDNLVVDMLGFGVMKQASNGSPIIFDVTHSLQMRDPSGAASGGRREQTVELAKAGLATGIAGLFIEAHPNPDKARCDGPSALPLDKLEPFLAQMKALDDLIKSFAHIDIR | not failed |
| MEHKKALFCIFAIIHLFFWIIFSSLNHFKLDTFLSYEIAFFSVLLIIFASYLNYKKVIIKKSKNYEKDFNFISSLFIKKKQNLSKIIHFKVLKDDLKPNVKEKIHFFAMFFTLFKLMAYVVLVAGFLFLHRQDKLDIFAYICGISSLLVCVFIFILYIKKYESKKNY | failed |
| MEIAKGVEMLQLEFQEFIIHPILLWNDEMAVLIDTGFPGQFEDIQVEMKRVGVSVDKLKVVILTHQDIDHIGSLPDLLENGVSDIKVYAHELDKRYIEGDLPLLKDVHVENPPKGKVSDTVIDGQELPYCGGILILHTPGHTPGHISLYLKQSKTLIAGDSMYSVNGKLGGIHAPTTLNIMEAQQSLKKYLNLDIESVVCYHGGLSKGNIKIQLQNL | failed |
| MEIAVERVFTKEILKRAVNLFHVTVEEKPLGDFENYIFKAKGDNDEDYVLRLTHSSHRSKQEVEAELDFLRYVAENGAKVAGPLYSTSRNLVEEIVAEDGTFFFASLFIYAKGEQVKGAESPYWGDAYFEAWGKAIGQLHRLTMDYPKTDYRDTWEEDESGIVNELEDGQVKEIAAVLMDEIKALPVERETFGLMHGDIHQGNFHYDGKELTIFDFDDAAYNYFIHDLAMVLYYSVLFTPWTAEEKTDFARKQLQVLRKGYEYEHRLADSWYESLPLFLRLRDIGLYGTLQKKFKGKDMPDNFLKLSEELYERIIKREAIVNI | failed |
| MEIEYIKDYRDINQEDDTVLILGYFDGLHRGHKALFDKAREVANKEGLKVVVFTFTESPKLAFSRFSPELLLHITYPKKRYEKFADYGVNKLYLVDFTSKFSKVSSDHFITHYIKNLKAKHIVVGFDYKFGHNRTDSDYLTRNFEGQVYTIEEIKEDHRKISATWIRKLIQEGNVVKANHLLGYDLSTRGRVVHGDARGRTIGFPTANLAPIDNTYLPADGVYVTNVIVANKIYRSMTSLGKNVTFGGKELRLEVNIFDFDEEIYGEIIEIVWLDKIRDMEKFEGIEDLTDRLEYDKRTALNWKKDSKLS | failed |
| MEIIIYIFVSIAIISLQAITPFVIRKSECFGVNVGERANRNAELTQLKKQYVGQVILWTVLVAIIGIALIQGFHWSENIQAGIFIISMFGQLIVSFIIYYRFHHTTLQWKREKIESGEISTNSIIMVDTSFHRRKMVISYTWFVVPLLIFIITLAITAVFYPFAPEEFPVHFDMNGVVTDTVQKSVRAALLLPMLQLGMIALFIFINFVIARSKQTVENENPADSLKRNMLFRQISSKAMLIMCVILVIDFLVMQAVILLSLSPEIMMITMSISIILILLGTVLLAVKVGQGGSRLKFANEPDNVNKPIRDDDAFWKAGVIYFNRNDPALFVEKRFGIGWTINTARPVAWLTFVFIIAAIVFISILF | failed |
| MEIKAMFRDVSLSSRNFSEMLSRESKVVAALAAKSPLMAHANWRLKGNSLEEATLYPAFDADGSPSTPALAVLNEEQRGKKHSASHAAIWNGNTRPNEGASMSCHVSDEKVLPDRFSTRLGVPDCYAKSQDLADVVTTIVAAFNPLVVEASPEGYFDKQVFDDKPGVGWMLYLPKVITQQQVPEARALIPVSAKGKQTGTIIVSVTDAPFSVDNPEHVAIANRIEIRLVDQDLLPAYVDI | not failed |
| MEIKAYKKKNGTTAYKFKAYIGKKNGKSQYAEKSGFKTKADARAALHNIQEEIDNPTPKSSMTFKELYDEWLLVYEKEVQNSTYYKTTRAFEKHVLPVIGSTKLSDFTPMELQNFRNDLSEKLKFARKLFGMVRKVFNHAALLSYIQANPALPVTSQGIKKKVEEKKDFYDTDELRDFMALVEKTNDIKKIALFRILAFTGIRKGELLALEWKDYRKSTLDINKAISHSPVGYEILPPKANSNRLLSLDEKTCKILDELHQTYPESTRIFESENGGMLSPSKPRKWLLEITKEKEIEPIRIHAFRHTHASLLFESGMSLKQVQYRLGHADLKTTMNIYTHITKFAKDKIGQQFSDYIDF | failed |
| MEIKGESMQKSKFRRICVFCGSSQGKKSSYQDAAVDLGNELVSRNIDLVYGGGSIGLMGLVSQAVHDGGRHLTGETVGEVRAVADMHQRKAEMAKHSDAFIALPGGYGTLEELLEVITWAQLGIHDKPVGLLNVDGYYNSLLSFIDKAVEEGFISPTAREIIVSAPTAKELVKKLEVN | not failed |
| MEIKLFCVFIVFIILFSPFVIALSYPDVNYTAENGIIFVQNVTTGEKKPLYLHGVSWFGFELKDHVVYGLDKRNWKDILKDVKRLGFNAIRLPFCSESIRPDTRPSPERINYELNPDLKNLTSLEIMEKIIEYANSIGLYILLDYHRIGCEEIEPLWYTENYSEEQYIKDWIFLAKRFGKYPNVIGADIKNEPHGEAGWGTGDERDFRLFAEKVGREILKVAPHWLIFVEGTQYTHVPNIDEIIEKKGWWTFWGENLMGVKDYPVRLPRGKVVYSPHVYGPSVYMMDYFKSPDFPNNMPIIWETHFGYLTDLNYTLVIGEWGGNYEGLDKVWQDAFVKWLIKKKIYNFFYWCLNPESGDTGGIFLDDWKTVNWEKMRVIYRLIKAANPEFEEPLYIILKTNATTSILGVGERIRIYWYTNGKVIDSNFAHSSEGEMNITVTKSMTLYIIVKKGNQTLRKELKLYVIGGNYGSNISTTQLVTPKKGGERISTSLKLAISLLFILLFVWYLLREKH | failed |
